B1: 3xFLAG-MCP-NSP3 (other)
chain: MDYKDHDGDYKDHDIDYKDDDDKASNFTQFVLVDNGGTGDVTVAPSNFANGVAEWISSNSRSQAYKVTCSVRQSSAQKRKYTIKVEVPKVATQTVGGVELPVAAWRSYLNMELTIPIFATNSDCELIVKAMQGLLKDGNPIPSAIAANSGIYASGSGGGGDVMLKMESTQQMASSIINTSFEAAVVAATSTLELMGIQYDYNEVYTRVKSKFDYVMDDSGVKNNLLGKAATIDQALNGKFGSAARNRNWMADTRTTARLDEDVNKLRMMLSSKGIDQKMRVLNACFNVKRVPGKSSSIIKCTRLMRDKIERGEVEVDDSFVEEKMEVDTIDWKSRYEQLEKRFESLKQRVNEKYTSWVQKAKKVNENMYSLQNVISQQQSQIADLQNYCNKLEVDLQNKISSLVSSVEWYLKSMELPDEIKTDIEQQLNSIDVINPINAIDDFESLIRNIILDYDRIFLMFKGLMRQCNYEYTYE
notes: also called 3×FLAG-tagged MCP-NSP3; pSL1083
B2: 3xHA-CCmut3-NSP3 (designed binder)
chain: MVDPVGFAEAWKAQFPDSEPPRMELRSVGDIEQELERAEARIRRNEQRVNQERFRMIYLETLLAKEKKSYDRASGSGGGGDVASMLKMESTQQMASSIINTSFEAAVVAATSTLELMGIQYDYNEVYTRVKSKFDYVMDDSGVKNNLLGKAATIDQALNGKFGSAARNRNWMADTRTTARLDEDVNKLRMMLSSKGIDQKMRVLNACFNVKRVPGKSSSIIKCTRLMRDKIERGEVEVDDSFVEEKMEVDTIDWKSRYEQLEKRFESLKQRVNEKYTSWVQKAKKVNENMYSLQNVISQQQSQIADLQNYCNKLEVDLQNKISSLVSSVEWYLKSMELPDEIKTDIEQQLNSIDVINPINAIDDFESLIRNIILDYDRIFLMFKGLMRQCNYEYTYEYPYDVPDYAYPYDVPDYAYPYDVPDYA
notes: also called 3×HA-tagged CCmut3-NSP3; pSL1102
B3: 3xFLAG-MCP (other)
chain: MDYKDHDGDYKDHDIDYKDDDDKASNFTQFVLVDNGGTGDVTVAPSNFANGVAEWISSNSRSQAYKVTCSVRQSSAQKRKYTIKVEVPKVATQTVGGVELPVAAWRSYLNMELTIPIFATNSDCELIVKAMQGLLKDGNPIPSAIAANSGIY
notes: also called 3×FLAG-tagged MCP; pSL1084
B4: 3xFLAG-MCP-ABI(iDab) (VHH)
chain: MDYKDHDGDYKDHDIDYKDDDDKASNFTQFVLVDNGGTGDVTVAPSNFANGVAEWISSNSRSQAYKVTCSVRQSSAQKRKYTIKVEVPKVATQTVGGVELPVAAWRSYLNMELTIPIFATNSDCELIVKAMQGLLKDGNPIPSAIAANSGIYASGSGGGGDVGSEVQLLESGGGLVQPGGSLRLSCAASGFTFSTFSMNWVRQAPGKGLEWVSYISKCGHVIYYADSVKGRFTISRDNSKNTLYLQMNSLRAEDTAVYYCARGPLWSFVRMSFDYWGQGTLVTVSSAS
notes: also called 3×FLAG-tagged MCP-ABI (iDab)3; 3xFLAG-MCP-(ABI(iDab))3

Experiments:
endogenous eIF4G = endogenous eIF4G (human (endogenous in HEK-293 cells), UniProt Q04637 1-1599); assay: anti-Flag co-IP from HEK-293 lysate, Western blot with anti-eIF4G (FIG. 6A)
Sequence of endogenous eIF4G (Q04637 whole entry): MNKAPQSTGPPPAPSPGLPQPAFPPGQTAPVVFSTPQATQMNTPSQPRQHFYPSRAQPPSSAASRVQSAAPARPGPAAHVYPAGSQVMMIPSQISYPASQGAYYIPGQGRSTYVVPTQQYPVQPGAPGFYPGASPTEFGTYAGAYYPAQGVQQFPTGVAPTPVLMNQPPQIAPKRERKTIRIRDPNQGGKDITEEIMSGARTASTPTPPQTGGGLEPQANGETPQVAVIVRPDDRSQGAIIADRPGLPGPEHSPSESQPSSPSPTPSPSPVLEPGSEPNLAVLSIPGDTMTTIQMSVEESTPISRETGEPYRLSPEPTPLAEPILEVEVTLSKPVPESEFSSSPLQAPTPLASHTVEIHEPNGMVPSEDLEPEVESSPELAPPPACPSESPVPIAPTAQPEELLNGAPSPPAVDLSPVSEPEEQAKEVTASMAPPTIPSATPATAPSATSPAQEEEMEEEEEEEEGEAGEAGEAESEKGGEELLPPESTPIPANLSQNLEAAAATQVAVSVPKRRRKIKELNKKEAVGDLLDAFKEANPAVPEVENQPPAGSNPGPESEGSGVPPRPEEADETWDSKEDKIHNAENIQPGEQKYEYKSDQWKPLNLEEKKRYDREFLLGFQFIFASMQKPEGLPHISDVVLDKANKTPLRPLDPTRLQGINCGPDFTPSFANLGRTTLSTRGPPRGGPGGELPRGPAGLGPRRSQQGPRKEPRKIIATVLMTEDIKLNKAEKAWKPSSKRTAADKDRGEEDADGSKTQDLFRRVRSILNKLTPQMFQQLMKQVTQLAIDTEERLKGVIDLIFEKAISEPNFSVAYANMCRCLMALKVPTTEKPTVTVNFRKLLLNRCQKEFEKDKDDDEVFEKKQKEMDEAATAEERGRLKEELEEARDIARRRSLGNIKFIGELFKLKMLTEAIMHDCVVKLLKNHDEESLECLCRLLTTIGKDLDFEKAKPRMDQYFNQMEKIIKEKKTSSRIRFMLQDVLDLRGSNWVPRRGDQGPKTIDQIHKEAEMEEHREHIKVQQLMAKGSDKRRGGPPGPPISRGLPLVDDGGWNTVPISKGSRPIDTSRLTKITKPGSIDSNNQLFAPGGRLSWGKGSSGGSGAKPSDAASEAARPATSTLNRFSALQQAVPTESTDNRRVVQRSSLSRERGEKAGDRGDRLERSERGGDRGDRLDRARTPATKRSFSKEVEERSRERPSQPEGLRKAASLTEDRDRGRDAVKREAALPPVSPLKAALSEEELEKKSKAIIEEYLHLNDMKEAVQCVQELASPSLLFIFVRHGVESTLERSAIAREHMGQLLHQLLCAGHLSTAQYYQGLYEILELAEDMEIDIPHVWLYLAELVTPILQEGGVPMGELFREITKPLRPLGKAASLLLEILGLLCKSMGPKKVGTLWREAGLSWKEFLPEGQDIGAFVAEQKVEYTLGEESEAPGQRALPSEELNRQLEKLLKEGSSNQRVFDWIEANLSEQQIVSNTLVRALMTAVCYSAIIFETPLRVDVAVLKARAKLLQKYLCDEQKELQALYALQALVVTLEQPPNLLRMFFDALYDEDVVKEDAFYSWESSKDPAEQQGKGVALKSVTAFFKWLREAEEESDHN

BCR-ABL = biological target: T1, BCR-ABL
T1 construct: Overexpressed in HEK-293 cells; also called BCR-ABL oncoprotein; BCR-ABL fusion protein

endogenous eIF4E = endogenous eIF4E (human (endogenous in HEK-293 cells), UniProt P06730 2-217); assay: anti-Flag co-IP from HEK-293 lysate, Western blot with anti-eIF4E (FIG. 6A)
Sequence of endogenous eIF4E (P06730 2-217 limits assumed): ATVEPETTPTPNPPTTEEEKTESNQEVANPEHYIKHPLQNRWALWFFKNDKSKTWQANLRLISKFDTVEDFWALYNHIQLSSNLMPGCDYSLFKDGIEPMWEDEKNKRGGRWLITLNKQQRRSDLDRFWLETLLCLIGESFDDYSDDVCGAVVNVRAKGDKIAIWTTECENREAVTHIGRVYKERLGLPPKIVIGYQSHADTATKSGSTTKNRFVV

Row | Binder | binding result (endogenous eIF4G) | binding result (BCR-ABL) | binding result (endogenous eIF4E)
1 | B1 | binds | – | –
2 | B2 | – | binds | –
3 | B3 | no binding | – | no binding
4 | B4 | – | binds | –

Source: patent publication US20260209789A1 (WESTLAKE UNIVERSITY, published 2026)
